Experiment [1] has as its target GnRH receptor of rat pituitary membranes (rat) (UniProt P30969). The experiment can be described thus: radioligand displacement on rat pituitary membranes, equimolar concentrations; reference native GnRH. In general terms: In a radioligand displacement assay an active substance lowers the binding of a labelled ligand.
In experiment [2] the target is LH receptor on bovine granulosa cells and small luteal cells (bovine) (UniProt Q28005). The experiment can be described thus: cell-based or functional assay.
Sequence of UniProt Q28005 (Q28005 27-701): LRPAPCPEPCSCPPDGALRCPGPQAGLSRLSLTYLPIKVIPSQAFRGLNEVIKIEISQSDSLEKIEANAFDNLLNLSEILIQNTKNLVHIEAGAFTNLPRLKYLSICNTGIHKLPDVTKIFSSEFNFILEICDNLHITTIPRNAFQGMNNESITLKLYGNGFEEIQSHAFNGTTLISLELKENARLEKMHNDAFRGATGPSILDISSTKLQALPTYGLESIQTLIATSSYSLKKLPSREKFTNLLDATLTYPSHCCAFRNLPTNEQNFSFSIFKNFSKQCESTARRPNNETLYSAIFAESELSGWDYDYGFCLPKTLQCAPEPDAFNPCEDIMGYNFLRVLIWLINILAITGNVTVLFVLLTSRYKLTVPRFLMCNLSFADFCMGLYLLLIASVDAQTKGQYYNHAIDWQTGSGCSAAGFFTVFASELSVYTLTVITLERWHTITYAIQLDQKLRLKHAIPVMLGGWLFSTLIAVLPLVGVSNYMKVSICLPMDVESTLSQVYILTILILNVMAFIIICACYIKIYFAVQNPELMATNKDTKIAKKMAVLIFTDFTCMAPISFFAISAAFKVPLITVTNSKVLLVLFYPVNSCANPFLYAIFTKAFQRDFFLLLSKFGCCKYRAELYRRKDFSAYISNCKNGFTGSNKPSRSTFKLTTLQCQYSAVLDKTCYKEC

Sequence of UniProt P30969 (P30969 whole entry): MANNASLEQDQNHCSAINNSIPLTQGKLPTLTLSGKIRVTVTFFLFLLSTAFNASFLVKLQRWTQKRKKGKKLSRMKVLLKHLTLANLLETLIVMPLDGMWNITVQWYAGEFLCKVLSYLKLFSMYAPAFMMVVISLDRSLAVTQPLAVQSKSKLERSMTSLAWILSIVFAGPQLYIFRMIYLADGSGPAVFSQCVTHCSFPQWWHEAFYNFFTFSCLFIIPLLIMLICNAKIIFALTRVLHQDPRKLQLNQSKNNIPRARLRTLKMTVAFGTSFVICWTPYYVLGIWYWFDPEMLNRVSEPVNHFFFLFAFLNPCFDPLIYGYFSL

With D-Lys6GnRH (peptide), in experiment [1], the displacement of radiolabelled GnRH as percent of the cpm displaced by native GnRH is 187%.

For the substance hecate-bLH conjugate (peptide), in experiment [2], the killing of bovine granulosa cells (Trypan Blue exclusion) (fold of the cells killed by hecate alone) came to 2 and the killing of bovine small luteal cells (Trypan Blue exclusion) (fold of the cells killed by hecate alone) came to 2.

Source of the values: patent EP0975354B1.
